This is an account of results in US11339213B2, “Methods and compositions for treatment of cancer” (MEREO BIOPHARMA 5, INC., priority 2015, dated 2022).

The test system of one series is OMP-PN42 tumors. As to the kind of experiment: OMP-PN42 xenograft, gemcitabine plus nab-paclitaxel with complete DLL4/VEGF inhibition. Type of series: in vivo, NOD-SCID mice. As to the method:
FIG. 11 is a graph showing activity of anti-DLL4/VEGF bispecific in combination with gemcitabine plus nab-paclitaxel (ABRAXANE®). OMP-PN42 tumors were implanted in NOD-SCID mice. Tumor-bearing mice (n=10/group) were treated with control Ab, gemcitabine alone (30 mg/kg weekly), gemcitabine plus nab-paclitaxel, or the combination of anti-DLL4/VEGF (305B83, 21R30, B20) and gemcitabine plus nab-paclitaxel. Antibodies were dosed 10 mg/kg, weekly.
In patient-derived xenograft experiments, the stroma and vasculature is comprised of murine cells, whereas the tumor cells are human. Because DLL4 and VEGF are expressed in both tumor cells and in the stroma/vasculature, the previous experiments that were carried out with DLL4 and VEGF antagonists that block signaling of the human, but not murine, proteins and may have underestimated the full anti-tumor effect of blocking these pathways. To address this issue, the effect of simultaneous blockade of DLL4 and VEGF in both human tumor and murine stroma/vasculature cells in our xenograft studies were evaluated. This was done with experiments including surrogate antibodies—anti-mouse DLL4 (21R30) and anti-mouse VEGF (B20) in addition to 305B83 (which blocks human DLL4 and VEGF). Complete DLL4/VEGF inhibition in combination with gemcitabine plus nab-paclitaxel in OMP-PN42 tumors was tested.

Series [1] concerns OMP-PN8 pancreatic tumor cells. The series can be described thus: OMP-PN8 pancreatic xenograft, antibodies in combination with gemcitabine. Conditions: with gemcitabine 70 mg/kg weekly for four weeks, then antibody maintained, demcizumab, bevacizumab 15 mg/kg, bispecific 30 mg/kg. Type of series: in vivo, NOD-SCID mice. How it is done: FIG. 9 is a graph showing that DLL4/VEGF bispecific is active in combination with gemcitabine in pancreatic cancer. OMP-PN8 pancreatic tumor cells were injected into NOD-SCID mice. Tumors were allowed to grow for 24 days until they had reached an average tumor volume of 110 mm^3. […] After four weeks of combination treatment, the gemcitabine was discontinued and the antibody treatments were maintained. Gemcitabine was dosed at 70 mg/kg, weekly.
Following four weeks of treatment, the gemcitabine treatment was discontinued and the antibody treatments were maintained.

Series [2] relates to ovarian serous carcinoma tumor model OMP-OV19. As to the kind of experiment: Tumor recurrence after chemotherapy termination, OMP-OV19. To be noted: paclitaxel 15 mg/kg with or without antibody once a week for 4 weeks, chemotherapy maintenance 3-4 weeks, monitored up to 2 months after discontinuation. Type of series: in vivo, NOD.SCID mice. As to the method: FIGS. 7A and 7B are graphs showing delay in tumor recurrence by 305B83+21R30 and B20 following chemotherapy termination. Ovarian OMP-OV19 and pancreatic OMP-PN42-tumor bearing animals were randomized and treatment began when mean tumor volumes reached approximately 100-150 mm^3. NOD. SCID mice were treated with 15 mg/kg paclitaxel in OMP-OV19 and 10 mg/kg gemcitabine plus 30 mg/kg nab-pacltiaxel in OMP-PN42 with or without antibody once a week for 4 weeks, followed by a chemotherapy for 3-4 weeks. Thereafter, treatment was discontinued and tumor growth was monitored up to 2 months.
To determine the effect of simultaneous blockade of DLL4 and VEGF by the bi-specific antibody 305B83 plus 21R30 (anti-mDLL4) and B20 (anti-mVEGF) on tumor recurrence, an ovarian serous carcinoma tumor model OMP-OV19 and a pancreatic adenocarcinoma model OMP-PN42 were treated in combination with standard of care agents (paclitaxel in ovarian cancer and gemcitabine/nab-paclitaxel in pancreatic cancer) for four weeks followed by a chemotherapy maintenance phase for 3-4 weeks. Subsequently, tumor growth was monitored for up to two months following the discontinuation of treatment.

A further series concerns xenograft tumor models. Conditions: Hoey et al., 2009; U.S. Pat. No. 7,750,124; cited from earlier work.
Series [3] has as its system OMP-PN8 pancreatic tumor cells. The series can be described thus: Serial transplantation study of tumor initiating cell frequency, OMP-PN8. To be noted: four weeks of treatment, 90 tumor cells into 10 new mice, 83 days without treatment. Type of series: in vivo. As to the method: FIG. 10 is a graph showing reduction of tumor-initiating cell frequency from anti-DLL4 activity. […] After four weeks of treatment, tumors were harvested, and the human tumor cells in the xenograft were purified. Ninety tumor cells from each treatment group were injected into new cohorts of 10 mice. Tumors were allowed to grow for 83 days without any further treatment. The volumes of the individual mice in the experiment are shown in the graph.
To determine the effect of DLL4 and VEGF inhibition on tumor initiating cell frequency in pancreatic cancer, serial transplantation studies were performed. […] Following four weeks of treatment, the tumors were harvested, and tumor cells from each treatment were implanted into a new set of mice. Tumors were then allowed to grow for 83 days without treatment. In the control group, nine out of ten mice grew large tumors (FIG. 10).

Series [4] concerns vasculature-related genes, Notch target genes. As to the kind of experiment: Vasculature density and stromal/vascular and Notch target gene expression in treated xenograft tumors. Type of series: in vivo, mouse. To be noted: human genes in tumors. As to the method: FIGS. 5A-5C are photomicrographs and graphs showing anti-VEGF inhibition of angiogenesis is dominant over anti-DLL4 hyperproliferation in animals receiving 305B83.
These experiments were carried out by including surrogate antibodies—anti-mouse DLL4 (21R30) and anti-mouse VEGF (B20).
For orientation: In xenograft studies the graft and the host belong to different species.

Another series has as its system OMP-C8 colon tumor cells. The series can be described thus: Human-mouse chimera skin graft model, luciferase-labeled OMP-C8 colon tumor growth. Type of series: in vivo, NOD/SCID mice. To be noted: OMP-C8 in human skin graft; 25 mg/kg intraperitoneally once a week; bioluminescence; compared to control antibody.
Series [5] in a line: Phase 1a trial side effects. Conditions: patients receiving 305B83. Type of series: in vivo, human. As to the method:
To manage this side effect, a treatment algorithm was developed. First, if the patient's blood pressure exceeds 140/90, the patient is instructed to phone the principal investigator. The initial goal is to normalize blood pressure in 48-72 hours. Treatment with antihypertensive is to be adjusted daily if the blood pressure is not less than 140/90.

Procedure for OMP-C8 colon tumor cells: Neonatal foreskin graft of about 2 cm^2 was implanted into the lateral trunk of anesthetized NOD/SCID mice. Luciferase-labeled human OMP-C8 colon tumor cells were then injected intradermally into the human skin graft 6 weeks post implant. Treatment was initiated 2 weeks later. Tumor growth was monitored by measurement of bioluminescence with the IVIS-200 Imaging System (Caliper Life Sciences).
To evaluate the effect of the bispecific anti-DLL4/VEGF antibody on tumor growth in a microenvironment composed of human cells, the human-mouse chimera skin graft model, in which human tumor cells are implanted intradermally into the full thickness of human skin previously transplanted onto mice was used.

In the case of `Nc1ccn([C@@H]2O[C@H](CO)[C@@H](O)C2(F)F)c(=O)n1` [gemcitabine, reference compound], the “tumor growth under chemotherapy” value in the series with OMP-PN42 tumors (gemcitabine 30 mg/kg weekly, alone or plus nab-paclitaxel) is “minimal effect”.

For the molecule “bevacizumab: humanized anti-VEGF monoclonal antibody [reference compound]”, in series [1], the “tumor growth after gemcitabine withdrawal” value is “had no effect”.

Regarding `CC(=O)O[C@H]1C(=O)[C@@]2(C)[C@H]([C@H](OC(=O)c3ccccc3)[C@]3(O)C[C@H](OC(=O)[C@H](O)[C@@H](NC(=O)c4ccccc4)c4ccccc4)C(C)=C1C3(C)C)[C@]1(OC(C)=O)CO[C@@H]1C[C@@H]2O` [paclitaxel], the “tumor growth during and after chemotherapy” value in series [2] is “grew continuously during the course of study”.

B1: demcizumab: anti-DLL4 antibody, also known as OMP-21M18 or 21M18 (antibody, chains of the INN, looked up, V domains shown)
VH: QVQLVQSGAEVKKPGASVKISCKASGYSFTAYYIHWVKQAPGQGLEWIGYISSYNGATNYNQKFKGRVTFTTDTSTSTAYMELRSLRSDDTAVYYCARDYDYDVGMDYWGQGTLVTVSS
VL: DIVMTQSPDSLAVSLGERATISCRASESVDNYGISFMKWFQQKPGQPPKLLIYAASNQGSGVPDRFSGSGSGTDFTLTISSLQAEDVAVYYCQQSKEVPWTFGGGTKVEIK
For B1, in the series with xenograft tumor models, the “frequency of cancer stem cells” value is on record as “reduce the frequency of cancer stem cells” and the tumor growth result is recorded as “inhibit tumor growth”. In addition, the “tumor growth frequency after serial transplantation” value in series [3] was “tumor growth frequency was reduced”. Moreover, in series [1], the “tumor growth after gemcitabine withdrawal” value is reported as “significantly delayed tumor growth”.

B2: 305B83: bispecific antibody 219R45-MB-21R83, anti-VEGF/anti-DLL4; blocks human DLL4 and VEGF (antibody, chains of the INN, looked up, V domains shown)
VH: QVQLVQSGAEVKKPGASVKISCKASGYSFTAYYIHWVKQAPGQGLEWIGYISNYNRATNYNQKFKGRVTFTTDTSTSTAYMELRSLRSDDTAVYYCARDYDYDVGMDYWGQGTLVTVSS
VL: DIVMTQSPDSLAVSLGERATISCRASESVDNYGISFMKWFQQKPGQPPKLLIYAASNQGSGVPDRFSGSGSGTDFTLTISSLQAEDVAVYYCQQSKEVPWTFGGGTKVEIK
VH2: QVQLVQSGAEVKKPGASVKVSCKASGYTFTNYWMHWVRQAPGQGLEWMGDINPSNGRTSYKEKFKRRVTLSVDKSSSTAYMELSSLRSEDTAVYFCTIHYDDKYYPLMDYWGQGTLVTVSS
VL2: DIVMTQSPDSLAVSLGERATISCRASESVDNYGISFMKWFQQKPGQPPKLLIYAASNQGSGVPDRFSGSGSGTDFTLTISSLQAEDVAVYYCQQSKEVPWTFGGGTKVEIK
As for B2, the “Notch target gene expression in tumors” value in series [4] is listed as “modulated Notch target gene expression in tumors similarly to anti-DLL4”. Moreover, the “tumor growth, complete DLL4/VEGF inhibition with chemotherapy” value in the series with OMP-PN42 tumors (305B83 plus surrogates 21R30 and B20, 10 mg/kg weekly, with gemcitabine plus nab-paclitaxel) was “complete tumor regression”. The “inhibition of tumor growth (TGI)” value with OMP-C8 colon tumor cells came to 87 % TGI. For the same molecule, in series [5], the side effects observed result was “development or exacerbation of hypertension in some patients”.
